Experiment: Catalytic activity of recombinant human CAT versus bovine CAT
Type: biochemical
Details: data normalized to per mg
Source text: In certain embodiments, the nanoparticles are formulated with antioxidant enzymes. For example, the following may be employed for generating SOD and catalase nanoparticles. […] In certain embodiments, SOD is an enzyme that catalyzes the conversion of superoxide to H2O2 and catalase is an enzyme that further degrades H2O2 to molecular oxygen and water. The SOD and catalase for use in the methods and compositions of the invention can be obtained from a variety of sources. In a particular embodiment, the SOD and/or catalase are mammalian SOD and/or mammalian catalase, and/or recombinant catalase. As used herein “mammal” and/or “mammalian” refer to a primate, canine, feline, rodent, and the like. Specific examples of mammalian SOD and/or catalase include human, pig, dog, cat, horse, cow, sheep, goat, rabbit, guinea pig, rats and mice SOD and/or catalase.

B1: Human CAT: Recombinant human catalase obtained from BioVision or Creative BioMart (protein, UniProt P04040 2-527, looked up)
Catalase: ADSRDPASDQMQHWKEQRAAQKADVLTTGAGNPVGDKLNVITVGPRGPLLVQDVVFTDEMAHFDRERIPERVVHAKGAGAFGYFEVTHDITKYSKAKVFEHIGKKTPIAVRFSTVAGESGSADTVRDPRGFAVKFYTEDGNWDLVGNNTPIFFIRDPILFPSFIHSQKRNPQTHLKDPDMVWDFWSLRPESLHQVSFLFSDRGIPDGHRHMNGYGSHTFKLVNANGEAVYCKFHYKTDQGIKNLSVEDAARLSQEDPDYGIRDLFNAIATGKYPSWTFYIQVMTFNQAETFPFNPFDLTKVWPHKDYPLIPVGKLVLNRNPVNYFAEVEQIAFDPSNMPPGIEASPDKMLQGRLFAYPDTHRHRLGPNYLHIPVNCPYRARVANYQRDGPMCMQDNQGGAPNYYPNSFGAPEQQPSALEHSIQYSGEVRRFNTANDDNVTQVRAFYVNVLNEEQRKRLCENIAGHLKDAQIFIQKKAVKNFTEVHPDYGSHIQALLDKYNAEKPKNAIHTFVQSGSHLAAREKANL
- catalytic potency relative to bovine CAT: 5.7 fold

From patent publication US20250161220A1, “LYMPHATIC DELIVERY OF NANOPARTICLES TO TREAT NEURODEGENERATIVE, NEUROLOGICAL, AND EYE CONDITIONS” (The Cleveland Clinic Foundation, priority 2022, published 2025)
